This series can be described thus: Agarose gel electrophoresis of protein + PBC formulations at defined w/w ratios (Example 2).
Setting [1] is: polymer:protein ratio 15:1, FIG. 2A-2D.

The record followed here is US20240115500A1, “POLYMERIC MICELLE COMPLEXES OF MRNA OR ZWITTERIONIC AGENTS, AND FORMULATIONS AND USES THEREOF” (Aravasc Inc., priority 2020, published 2024).

Experimental: Unless otherwise indicated, the complexation was conducted at room temperature by incubating the PBC with the protein for 10-20 minutes on a microcentrifuge. A formulation of PBC alone was prepared along with the protein and PBC complexes.
Formulation were prepared as described above and analyzed by agarose gel electrophoresis. A 2% agarose gel was prepared and 20 μl of each formulation was loaded at the center of the gel. The gel was run for 30 minutes at 75V.

Regarding interferon alpha, the “complexation with the polymer (agarose gel)” value (shortened to “complexation with the polymer”) (polymer:protein ratio 18:1, FIG. 2D) was “significantly complex”. Turning to Semaglutide, the “complexation with the polymer” value was “significantly complex” under setting [1] and “significantly complex” (polymer:protein ratio 30:1, FIG. 2A/2B).

B1: interferon gamma: interferon protein tested for complexation with PBC (protein, UniProt P01579 24-161, looked up)
Interferon gamma: QDPYVKEAENLKKYFNAGHSDVADNGTLFLGILKNWKEESDRKIMQSQIVSFYFKLFKNFKDDQSIQKSVETIKEDMNVKFFNSNKKKRDDFEKLTNYSVTDLNVQRKAIHELIQVMAELSPAAKTGKRKRSQMLFRG
Take B1: the “complexation with the polymer” value under setting [1] is “significantly complex”.
